{"source": "patent US20240269303A1", "about": "(RESEARCH DEVELOPMENT FOUNDATION, published 2024)", "binders": {"B1": {"name": "FcF2-deruxtecan (Fc fusion)", "chain": "EPKSCDKTHTCPPCPAPELLGGPSVFLFPPKPKDTLMISRTPEVTCVVVDVSHEDPEVKFNWYVDGVEVHNAKTKPREEQYNSTYRVVSVLTVDHHDWLNGKEYKCKVSNKALPAPIEKTISKAKGQPREPQVYTLPPSRDELTKNQVSLTCLVKGFYPSDIAVEWESNGQPENNYKTTPPVLDSDGSFFLYSKLTVDKSRWQQGNVFSCSVMHEALHSHYTQKSLSLSPGKGGGGSGGGGSSRGIKGKRQRRISAEGSQACAKGCELCSEVNGCLKCSPKLFILLERNDIRQVGVCLPSCPPGYFDARNPDMNKCIKCKIEHCEACFSHNFCTKCKEGLYLHKGRCYPACPEGSSAANGTMECSSPGGGGSGGGGSLPETGGGC", "modifications": "C-terminal Cys of GGGC carries maleimide-GGFG-deruxtecan"}, "B2": {"name": "FcF2Δlinker-MMAE (Fc fusion)", "chain": "EPKSCDKTHTCPPCPAPELLGGPSVFLFPPKPKDTLMISRTPEVTCVVVDVSHEDPEVKFNWYVDGVEVHNAKTKPREEQYNSTYRVVSVLTVDHHDWLNGKEYKCKVSNKALPAPIEKTISKAKGQPREPQVYTLPPSRDELTKNQVSLTCLVKGFYPSDIAVEWESNGQPENNYKTTPPVLDSDGSFFLYSKLTVDKSRWQQGNVFSCSVMHEALHSHYTQKSLSLSPGKSRGIKGKRQRRISAEGSQACAKGCELCSEVNGCLKCSPKLFILLERNDIRQVGVCLPSCPPGYFDARNPDMNKCIKCKIEHCEACFSHNFCTKCKEGLYLHKGRCYPACPEGSSAANGTMECSSPLPETGGG", "modifications": "C-terminal GGG carries valine-citrulline-PAB-MMAE"}, "B3": {"name": "FcF2-PNU159682 (Fc fusion)", "chain": "EPKSCDKTHTCPPCPAPELLGGPSVFLFPPKPKDTLMISRTPEVTCVVVDVSHEDPEVKFNWYVDGVEVHNAKTKPREEQYNSTYRVVSVLTVDHHDWLNGKEYKCKVSNKALPAPIEKTISKAKGQPREPQVYTLPPSRDELTKNQVSLTCLVKGFYPSDIAVEWESNGQPENNYKTTPPVLDSDGSFFLYSKLTVDKSRWQQGNVFSCSVMHEALHSHYTQKSLSLSPGKGGGGSGGGGSSRGIKGKRQRRISAEGSQACAKGCELCSEVNGCLKCSPKLFILLERNDIRQVGVCLPSCPPGYFDARNPDMNKCIKCKIEHCEACFSHNFCTKCKEGLYLHKGRCYPACPEGSSAANGTMECSSPGGGGSGGGGSLPET", "modifications": "PNU159682 (anthracycline derivative) joined to the C-terminus by sortase A; the linker is not described"}, "B4": {"name": "FcST4-MMAE (Fc fusion)", "chain": "EPKSCDKTHTCPPCPAPELLGGPSVFLFPPKPKDTLMISRTPEVTCVVVDVSHEDPEVKFNWYVDGVEVHNAKTKPREEQYNSTYRVVSVLTVDHHDWLNGKEYKCKVSNKALPAPIEKTISKAKGQPREPQVYTLPPSRDELTKNQVSLTCLVKGFYPSDIAVEWESNGQPENNYKTTPPVLDSDGSFFLYSKLTVDKSRWQQGNVFSCSVMHEALHSHYTQKSLSLSPGKGGGGSGGGGSSRGIKGKRQRRISAEGSQACAKGCELCSEVNGCLKCSPKLFILLERNDIRQVGVCLPSCPPGYFDARNPDMNKCIKCKIEHCEACFSHNFCTKCKEGLYLHKGRCYPACPEGSSAANGTMECSSPGGGGSGGGGSSRGIKGKRQRRISAEGSQACAKGCELCSEVNGCLKCSPKLFILLERNDIRQVGVCLPSCPPGYFDARNPDMNKCIKCKIEHCEACFSHNFCTKCKEGLYLHKGRCYPACPEGSSAANGTMECSSPGGGGSGGGGSLPETGGG", "modifications": "C-terminal GGG carries val-cit-PAB-MMAE (sortase reaction with G3-val-cit-PAB-MMAE; GG-8xHis removed)"}}, "key": {"LGR5 [1]": {"target": "T1, LGR5 (UniProt O75473 22-907, limits assumed)", "T1 sequence (looked up)": "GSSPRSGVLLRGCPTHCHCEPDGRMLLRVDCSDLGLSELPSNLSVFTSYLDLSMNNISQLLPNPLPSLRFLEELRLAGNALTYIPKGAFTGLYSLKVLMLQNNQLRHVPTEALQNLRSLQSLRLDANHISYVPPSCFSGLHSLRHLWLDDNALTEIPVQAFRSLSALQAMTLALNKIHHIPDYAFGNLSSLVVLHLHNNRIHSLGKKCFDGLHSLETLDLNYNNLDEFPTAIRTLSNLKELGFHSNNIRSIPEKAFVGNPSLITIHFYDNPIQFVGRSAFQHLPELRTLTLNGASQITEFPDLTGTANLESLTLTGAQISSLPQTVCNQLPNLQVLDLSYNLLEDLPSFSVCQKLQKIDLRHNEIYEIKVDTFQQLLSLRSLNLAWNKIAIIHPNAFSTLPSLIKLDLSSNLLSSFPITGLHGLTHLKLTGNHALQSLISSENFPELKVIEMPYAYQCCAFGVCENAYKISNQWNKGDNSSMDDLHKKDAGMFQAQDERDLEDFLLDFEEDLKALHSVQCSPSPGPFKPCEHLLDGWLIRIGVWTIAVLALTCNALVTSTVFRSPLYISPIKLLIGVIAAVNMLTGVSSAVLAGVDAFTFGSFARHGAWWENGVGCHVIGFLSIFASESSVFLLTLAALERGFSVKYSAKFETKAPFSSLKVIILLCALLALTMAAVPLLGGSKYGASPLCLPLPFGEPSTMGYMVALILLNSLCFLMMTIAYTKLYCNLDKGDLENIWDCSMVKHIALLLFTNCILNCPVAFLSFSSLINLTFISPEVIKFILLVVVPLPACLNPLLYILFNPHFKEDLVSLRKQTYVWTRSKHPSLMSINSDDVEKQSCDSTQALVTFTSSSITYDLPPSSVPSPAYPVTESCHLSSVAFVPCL", "test": "cell-based or functional assay"}, "LGR5 [2]": {"target": "T1, LGR5", "test": "cell-based or functional assay", "remark": "listed apart in the source"}}}
{"binder": "B1", "values": [{"measurement": "IC50 of growth inhibition, OVCAR8/EV cells (LGR5-poor control; CCK8, 120 h)", "setting": "LGR5 [1]", "result": 9.04, "unit": "nM"}, {"measurement": "IC50 of growth inhibition, OVCAR8/LGR5 cells (CCK8, 120 h)", "setting": "LGR5 [1]", "result": 0.753, "unit": "nM"}, {"measurement": "selectivity, OVCAR8/LGR5 against OVCAR8/EV", "setting": "LGR5 [1]", "result": 12, "unit": "fold"}]}
{"binder": "B2", "values": [{"measurement": "IC50 (read off the curve), growth inhibition of OVCAR8/LGR5 cells [panel ExpiCHO FcF2-MMAE linker deletion batch #1]", "setting": "LGR5 [2]", "result": "~4", "unit": "nM"}]}
{"binder": "B3", "values": [{"measurement": "IC50 of growth inhibition, OVCAR8/EV cells (LGR5-poor control)", "setting": "LGR5 [1]", "result": "> 3000", "unit": "pM"}, {"measurement": "IC50 of growth inhibition, OVCAR8/LGR5 cells", "setting": "LGR5 [1]", "result": 300, "unit": "pM"}, {"measurement": "IC50 ratio, OVCAR8/EV to OVCAR8/LGR5", "setting": "LGR5 [1]", "result": "~10", "unit": "ratio"}]}
{"binder": "B4", "values": [{"measurement": "IC50 of cytotoxicity (OVCAR8 empty vector and LGR5-overexpressing cells; the cell line of each end is not stated)", "setting": "LGR5 [1]", "result": "1.9 to 3.8", "unit": "nM"}]}
